# Patent publication US20120245221A1, “ANTI-APOPTOTIC AGENTS AND USES THEREOF” (priority 2009, published 2012)
# Tests used:
# [1] = molecular target: Akt kinase, endogenous protein of immortalized human Schwann cells (human) (UniProt P31749); experiment: cell-based or functional assay
# [2] = test system: Schwann cells; assay type: cell-based, human; conditions: 100 μM H2O2, 24 hours
# Description: (§1) Immortalized human Schwann cells (54) were maintained in DMEM supplemented with 10% FCS and penicillin/streptomycin at 37° C. in 5% CO2. Infections were performed with T. cruzi trypomastigotes (Silvio strain) at 2×10^5 parasites/ml or at a parasite:cell ratio of 50:1. After 2 or 3 hours, monolayers were washed to remove unattached parasites and cells were then maintained in medium containing 2% FCS for 3 to 5 days to complete the intracellular infection cycle.
# (§2) Infected Schwann cells, Sc-Red cells, and Sc-PDNF cells were treated for 24 hours with 100 to 500 μM H2O2 with or without pretreatment with the Akt inhibitor Akti VIII (10 μM), fixed, and visualized by fluorescence microscopy after staining with DAPI and TUNEL reagents with the In Situ Cell Death Detection kit (Roche). Cell survival was measured by MTT-based CellTiter kit (Promega). Alternatively, Sc-Red and Sc-PDNF cells were grown for 4 days in DMEM, 1% bovine serum albumin (BSA) with or without TNF-α (20 ng/ml) and TGF-β1 (40 ng/ml) and with or without Akti VIII (10 μM).
# [3] = test system: Schwann cells; experiment: TNF-α and TGF-β induced apoptosis, TUNEL assay; assay type: cell-based, human; conditions: TNF-α 20 ng/ml and TGF-β 40 ng/ml
# Description: as §2
# [4] = test system: Akt; experiment: Akt-dependent phosphorylation of PDNF in Schwann cells (immunoprecipitation with TCN-2, Western blotting); assay type: cell-based, human
# Description: To provide further evidence that the phosphorylation of PDNF depended on host […], T. cruzi-infected Schwann cells were treated with LY294002, a pharmacological inhibitor of PI3K, which phosphorylates and activates Akt (10), and with Akti VIII, a specific allosteric inhibitor of Akt that prevents the phosphorylation of Akt at Ser^473 and Thr^308, which is critical for the activation of Akt (25). Lysates of treated cells were assayed for phosphorylated Akt (pAkt) and, after immunoprecipitation with a PDNF-specific antibody, for the presence of Akt-phosphorylated substrates. […] The conclusion that PDNF was a substrate of Akt was further reinforced by in vitro kinase assays.
# (§3) Cell monolayers were lysed with lysis buffer (20 mM tris-HCl (pH 7.5), 150 mM NaCl, 1 mM EDTA, 1% Triton X-100, 2.5 mM sodium pyrophosphate, 1 mM glycerophosphate, 1 mM Na3VO4, 1 μg/mL leupeptin and 1 mM phenylmethylsulfonyl fluoride (PMSF)) on ice for 10 min, cleared by centrifugation (12,000×g for 10 min at 4° C.) and immunoprecipitated with an antibody specific for Akt-phosphorylated substrate or with TCN-2 at 4° C. overnight Immunoprecipitates were collected with protein G-Sepharose for 2 hours at 4° C., washed with lysis buffer, and resuspended in SDS-sample buffer for SDS-PAGE and Western blotting analysis. In other experiments, total cell lysates (30 to 50 μg of protein) were resolved by SDS-PAGE, transferred to nitrocellulose membranes, and incubated with the relevant primary antibodies, followed by incubation with HRP-conjugated secondary antibody and visualization by ECL.
# [5] = test system: bacterially-expressed PDNF (recombinant full-length PDNF, clone 19Y, expressed in E. coli)
# [6] = test system: Schwann cells; experiment: H2O2-induced apoptosis, TUNEL assay; assay type: cell-based, human
# Description: as §2
# [7] = test system: Akt; experiment: Western blotting of pAkt (activation of Akt) in Schwann cells; assay type: cell-based, human; conditions: Schwann cell-expressed PDNF compared to control transfected cells
# Description: as §1
# The coding region of the gene encoding PDNF (formerly T. cruzi neuraminidase, or TCNA) was amplified from the TS19y clone (20) with the primers TCNA-F: 5′-[…]-3′ (SEQ ID NO: 11) and TCNA-R: 5′-[…] (SEQ ID NO: 12) (restriction sites for XhoI and SacII are underlined) and inserted into the pIRES2-DsRed-Express vector (Clontech). Selected recombinant plasmids were purified with the Qiagen kit, sequenced at Tufts University Core facility, and used for transfections. Cells were plated at 1×10^5 cells/ml in 100-mm plates 20 hours before their transfection with 10 μg of total DNA per plate with the FuGENE HD transfection reagent (Roche Diagnostics) as recommended by the manufacturer. Transfected cells were selected with G418 (1 mg/ml) and analyzed for the presence of PDNF by Western blotting and trans-sialidase activity assays (26). […]
# [8] = test system: Akt3; experiment: cDNA microarray, Sc-PDNF vs Sc-Red cells: Akt3 mRNA; assay type: cell-based, human; conditions: Schwann cells expressing PDNF vs control cells
# Description: (§4) These analyses were performed as described previously (55, 56). The concentration and quality of total RNA isolated from Sc-Red cells and Sc-PDNF cells were estimated by spectrophotometry (A260 nm/A280 nm of 1.9 to 2.1) and by agarose gel electrophoresis. Hybridization and data analysis were performed by the Tufts Expression Array Core with cDNAs prepared from Sc-Red cells and Sc-PDNF cells labeled with aminoallyl (aa)-dUTP Cy3 or Cy5 dyes, respectively. The two differently dye-labeled cDNAs were hybridized with the same microarray slide containing 48,500 human genes (Microarrays Inc) for 16 hours. After washing, the slide was scanned at 550 nm and 649 nm for Cy-3 and Cy-5 dyes, respectively, in a ScanArray 4000 scanner (PerkinElmer). Images were overlaid and analyzed with QuantArray spot quantification software (Packard BioChip Technologies). The ratio of both fluorescence intensities for each spot reflected the ratio of each gene expressed in the control and treatment samples. […] For each gene, ratios of red (Cy-5) over green (Cy-3) intensities (I) were calculated and normalized through a Lowess Fit of the log2 ratios (log2(Icy-5/Icy-3)) over the log2 of the total intensity (log2(Icy-5. Icy-3)). Mean ratios were calculated from the duplicate spots, and only values with a covariance (CV) b0.5 were further taken into account. […]
# [9] = test system: caspase-9; experiment: cDNA microarray, Sc-PDNF vs Sc-Red cells: caspase-9 mRNA; assay type: cell-based, human; conditions: PDNF-expressing Schwann cells vs control cells
# Description: as §4
# [10] = test system: transcription factor FOXO; experiment: cDNA microarray, Sc-PDNF vs Sc-Red cells: FOXO mRNA; assay type: cell-based, human; conditions: PDNF-expressing Schwann cells vs control cells
# Description: as §4
# [11] = test system: mitochondrial protein BAX; experiment: cDNA microarray, Sc-PDNF vs Sc-Red cells: BAX mRNA; assay type: cell-based, human; conditions: PDNF-expressing Schwann cells vs control cells
# Description: as §4
# [12] = test system: other protein kinases; experiment: cDNA microarray, Sc-PDNF vs Sc-Red cells: other protein kinase mRNAs; assay type: cell-based, human; conditions: Schwann cells expressing PDNF vs control cells
# Description: as §4
# [13] = test system: Akt3; experiment: Real-time PCR, Sc-PDNF vs Sc-Red cells: Akt3; assay type: cell-based, human; conditions: PDNF-transfected Schwann cells vs control cells
# Description: (§5) These assays were performed as described previously (57, 58). In brief, RNA was isolated with the Trizol reagent and chloroform, cDNA was synthesized from 500 ng of total RNA with Superscript III reverse transcriptase primed with random hexamers, and quantitative PCR reactions were performed with QuantiTect SYBR Green PCR kit (Qiagen) on an Applied Biosystems 7300 Real-Time PCR system. Conditions for the PCR reactions were: 95° C. for 15 min, followed by 50 cycles at 94° C. for 15 s, 54° C. for 30 s, and 72° C. for 45 s, concluding with a dissociation stage to measure amplification product specificity. Primers used to calculate Akt expression were synthesized as described previously (57). Experiments were performed in triplicate, and fold differences were calculated by the 2^−ΔΔCt method (ΔΔCt=(Cttarget gene−Ctb-actin)treated−(Cttarget gene−Ctb-actin)untreated) as described previously (58).
# [14] = test system: Akt2; experiment: Real-time PCR, Sc-PDNF vs Sc-Red cells: Akt2; assay type: cell-based, human; conditions: PDNF-expressing cells vs control cells, p<0.05
# Description: as §5
# [15] = test system: Akt; experiment: Coimmunoprecipitation of PDNF and Akt; assay type: binding; conditions: lysates of T. cruzi-infected human Schwann cells, 4 days; IP with mAb TCN-2
# Description: We infected Schwann cells with T. cruzi for 2 hours, removed parasites from the medium overlay by washing, and cultured the cells for 4 days to allow intracellular parasites to differentiate, grow, and multiply. Lysates of uninfected and infected Schwann cells were immunoprecipitated with the monoclonal antibody (mAb) TCN-2, which is specific for the C-terminal tandem repeat unit of PDNF (FIG. 1A) (23), and Western blots of these immunoprecipitates were incubated with PDNF— and Akt-specific antibodies.
# as §3
# [16] = T. cruzi-infected Schwann cells treated with inhibitor for 24 hours
molecule,measurement,setting,value
PDNF expressed in the cytosol of human Schwann cells transfected with pIRES2-DsRed-Express carrying,apoptosis (TUNEL assay) of Sc-PDNF cells in TNF-α (20 ng/ml) and TGF-β (40 ng/ml),[1],2.5 % of cells
O=c1[nH]c2ccccc2n1C1CCN(Cc2ccc(-c3nc4cc5[nH]cnc5cc4nc3-c3ccccc3)cc2)CC1 [Akti VIII],effect of Akt inhibitor on survival-promoting activity of PDNF,[2]; Sc-PDNF cells pretreated with Akti VIII 10 μM,abrogated
same,effect of Akt inhibitor on resistance of infected cells to oxidative stress,[2]; T. cruzi-infected Schwann cells pretreated with Akti VIII 10 μM,lost
same,effect of Akt inhibitor on anti-apoptotic effect of intracellular PDNF,[3]; Akti VIII 10 μM,abolished
same,extent of the phosphorylation of PDNF,"[4]; Schwann cells transfected with plasmid encoding PDNF, inhibitor for 24 hours",substantially decreased
same,abundance of activated Akt (pAkt),[4]; [16],reduction in abundance of activated Akt
same,abundance of unphosphorylated PDNF,[4]; [16],did not affect
same,phosphorylation of PDNF,[4]; [16],inhibition of the phosphorylation of PDNF
"Akt kinase, endogenous protein of immortalized human Schwann cells","in vitro kinase assay: phosphorylation of bPDNF by immuno-purified Akt, Western blot with antibody against Akt-phosphorylated substrates",[5],generated phosphorylated PDNF in vitro in a dose-dependent and ATP-dependent manner
"OO [H2O2, hydrogen peroxide]",cell survival of uninfected Schwann cells,[2],only half of the cells survived
same,apoptosis induced in uninfected Schwann cells,"[6]; 100 μM H2O2, 6 hours",~25%
same,uninfected cells with apoptosis-related DNA damage,"[6]; 500 μM H2O2, 24 hours",~90%
PDNF expressed in the cytosol of human Schwann cells transfected with pIRES2-DsRed-Express carrying (enzyme),"abundance of pAkt (Ser^473), Western blot with scanning densitometry, Sc-PDNF against control transfected cells",[1],5 fold
same,"abundance of pAkt (Thr^308), Western blot with scanning densitometry, Sc-PDNF against control transfected cells",[1],6 fold
"PDNF: Trypanosoma cruzi membrane-bound neuraminidase/trans-sialidase; clone 19Y expressed in Schwann cell cytosol from pIRES2-DsRed-Express plasmid (protein, listed as Trypanosoma cruzi) MGKTVVVASRMFWLMFFVPLLLAICPSEPAYALAPGSSRVELFKRKNSTVPFEDKAGKVTERVVHSFRLPALVNVDGVMVAIADARYDTSNDNSLIDTVAKYSVDDGETWETQIAIKNSRVSSVSRVVDPTVIVKGNKLYVLVGSYYSSRSYWSSHGDARDWDILLAVGEVTKSTAGGKITASIKWGSPVSLKKFFPAEMEGMHTNQFLGGAGVAIVASNGNLVYPVQVTNKKKQVFSKIFYSEDDGKTWKFGKGRSDFGCSEPVALEWEGKLIINTRVDWKRRLVYESSDMEKPWVEAVGTVSRVWGPSPKSNQPGSQSSFTAVTIEGMRVMLFTHPLNFKGRWLRDRLNLWLTDNQRIYNVGQVSIGDENSAYSSVLYKDDKLYCLHEINTDEVYSLVFARLVGELRIIKSVLRSWKNWDSHLSSICTPADPAASSSESGCGPAVTTVGLVGFLSGNASQNVWEDAYRCVNASTANAERVRNGLKFAGVGGGALWPVSQQGQNQRYRFANHAFTLVASVTIHEAPRAASPLLGASLDSSGGKKLLGLSYDEKHQWQPIYGSTPVTPTGSWETGKRYHLVLTMANKIGSVYIDGELLEGSGQTVVPDGRTPDISHFYVGGYKRSDMPTISHVTVNNVLLYNRQLNTEEIRTLFLSQDLIGTEAHM",increase in the abundance of pAkt (Ser473),[7],five-fold
same,increase in the abundance of pAkt (Thr308),[7],six-fold
same,Akt3 mRNA more abundant,[8],~3 fold
same,caspase-9 mRNA reduced in abundance,[9],~5.0 fold
same,FOXO mRNA reduced in abundance,[10],~4.0 fold
same,BAX mRNA reduced in abundance,[11],~2.6 fold
same,abundance of the mRNAs for other protein kinases,[12],unaltered
same,increased expression of the gene encoding Akt3,[13],3 fold
same,increase in the mRNA for Akt2,[14],~5.0 fold
same,protection from H2O2-induced oxidative stress,[2]; Schwann cells transfected with plasmid encoding PDNF,protected from H2O2-induced oxidative stress
same,cells that underwent apoptosis (TUNEL-positive),"[3]; PDNF in Schwann cell cytosol, 4 days",2.5%±0.7
same,physical interaction between PDNF and Akt,[15],coimmunoprecipitated PDNF and Akt
